Consider 2 substances from paper PMC5432954.

pKi: −log10 of the molar value.

One may read the pKi as the negative decadic logarithm of the Ki, by convention in mol/L.

This test deals with papain (UniProt P00784). Briefly: enzyme inhibition assay (Dixon plot); various amounts of recombinant protein with 10 ug papain (1.24 uM final in 350 ul), 0.1 M sodium phosphate pH 6.0, 1 mM EDTA, 2 mM beta-mercaptoethanol, 37°C, substrate BANA; Ki from plots of 1/v versus [I].
Sequence of UniProt P00784 (P00784 134-345): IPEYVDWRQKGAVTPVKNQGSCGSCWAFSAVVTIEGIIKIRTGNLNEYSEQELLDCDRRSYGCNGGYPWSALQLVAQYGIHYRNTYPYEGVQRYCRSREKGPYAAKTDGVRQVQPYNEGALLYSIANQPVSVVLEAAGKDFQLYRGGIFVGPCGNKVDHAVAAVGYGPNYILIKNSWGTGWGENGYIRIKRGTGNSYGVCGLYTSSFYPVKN

On to “SiCYS, sesame seed group II phytocystatin (non-fusion recombinant) (natural protein)”, for which the pKi is 7.72.
Regarding “SiCYS-N, N-terminal domain of SiCYS (non-fusion recombinant) (domain or fragment)”, the pKi is 7.10.
